In publication PMC11077763:

Molecular target: murine TRIM66 PHD-Bromodomain (a.a. 996-1,185) (mouse) (UniProt Q924W6)
Assay: ITC; 800 uM to 2.4 mM peptide in the syringe injected into 30-50 uM mTRIM66 PHD-Bromodomain in the cell; 25°C; 20 mM Tris pH 7.5, 100 mM NaCl; single-site binding model; triplicate

Sequence of UniProt Q924W6 (Q924W6 996-1185): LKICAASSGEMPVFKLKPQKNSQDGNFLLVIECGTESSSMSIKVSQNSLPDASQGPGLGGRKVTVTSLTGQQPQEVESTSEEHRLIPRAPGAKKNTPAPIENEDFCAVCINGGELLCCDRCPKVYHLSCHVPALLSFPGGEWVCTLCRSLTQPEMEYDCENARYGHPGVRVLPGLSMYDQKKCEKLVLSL

## H3 (1-30) K4me3 (from UniProt P68431 2-31) (peptide)
  Kd: 59.5 µM

## H3 (1-30) K4me3+K18Ac (from UniProt P68431 2-31) (peptide)
  fold decrease of the binding affinity against the unmodified H3 tail: 7.1 fold
  fold increase of the binding affinity against H3K4me3 alone: 2.4 fold

## H3 (1-30) K9me3+K18Ac (from UniProt P68431 2-31) (peptide)
  Kd: 1.3 µM

## H3 (1-30) unmodified (from UniProt P68431 2-31) (peptide)
  Kd: 3.4 µM
